# Like-named read-outs stand apart in the source and are kept apart here. Marks after values point to notes of the source that are not given here.
# T1: M344H-Gal-T1 (Bos taurus, UniProt P08037, C342T/M344H)
# T1 construct: codes for residues 130 to 402 of bovine Gal-T1; made in house; host or cells: E. coli BL21(DE3) pLysS (pET23a derivative pEGT-d129)
# T1 sequence (P08037 130-402 C342T/M344H): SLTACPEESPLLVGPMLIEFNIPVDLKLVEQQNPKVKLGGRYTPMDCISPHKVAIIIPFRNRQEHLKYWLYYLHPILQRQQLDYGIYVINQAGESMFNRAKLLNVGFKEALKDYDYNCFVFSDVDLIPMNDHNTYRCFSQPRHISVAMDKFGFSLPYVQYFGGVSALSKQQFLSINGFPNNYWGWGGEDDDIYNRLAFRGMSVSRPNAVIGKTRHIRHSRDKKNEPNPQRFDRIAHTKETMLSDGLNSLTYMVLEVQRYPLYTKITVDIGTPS
# T2: β4Gal-T1 (Bos taurus, UniProt P08037)
# T2 sequence (P08037 1-402): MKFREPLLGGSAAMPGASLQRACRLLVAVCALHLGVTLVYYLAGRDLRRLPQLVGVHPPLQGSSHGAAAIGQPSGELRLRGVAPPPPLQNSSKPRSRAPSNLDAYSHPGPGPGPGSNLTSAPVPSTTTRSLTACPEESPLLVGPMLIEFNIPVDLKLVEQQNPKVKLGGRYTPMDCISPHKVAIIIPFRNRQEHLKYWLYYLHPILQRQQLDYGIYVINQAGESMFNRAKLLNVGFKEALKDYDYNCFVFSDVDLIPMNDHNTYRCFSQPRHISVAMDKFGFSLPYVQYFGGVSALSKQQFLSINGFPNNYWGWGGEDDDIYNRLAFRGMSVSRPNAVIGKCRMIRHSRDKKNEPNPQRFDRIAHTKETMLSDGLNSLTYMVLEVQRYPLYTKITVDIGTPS
# Columns and labels:
# [1] = molecular target: T1, M344H-Gal-T1; assay: Acceptor substrate inhibition of M344H-Gal-T1 catalytic activity; format: biochemical, bovine; settings: in the presence of Mn^2+ (5 mM in FIG. 7c)
# Method: (§1) FIG. 7 depicts the effect of GlcNAc concentration on Gal-T activity of the M344H-Gal-T1 mutant (a) and wild-type enzyme, C342T-Gal-T1 (b), at different fixed concentrations of Mn^2+: (a) (●) 6 μM, (O) 20 μM, (▾) 0.5 mM, (open triangle) 1.5 mM, and (▪) 5 mM and (b) (●) 6 μM, (open triangle) 80 μM, (▪) 0.5 mM, (▴) 1.5 mM, and (A) 5 mM. The activity of the mutant (a) is inhibited above 2-5 mM GlcNAc at any concentrations of Mn^2+, whereas the activity of the wild type (b) is inhibited at 25-30 mM GlcNAc and above 0.5 mM Mn^2+. (c) Effect of either GlcNAc, chitobiose, or β-benzyl-GlcNAc concentration on Gal-T activity of the mutant M344H-Gal-T1 in the presence of 5 mM Mn^2+. Arrows indicate the inhibition concentration for the respective curves. It is known that the disaccharide chitobiose binds strongly to the Gal-T1 compared to the monosaccharide GlcNAc. The higher the affinity of the acceptor substrate, the lower the required inhibition concentrations.
# (§2) The inhibition of the M344H-Gal-T1 mutant with higher concentrations of the acceptor is independent of the concentration of Mn^2+ used in the assay (FIGS. 7A-C), while in the wild type, low concentrations of metal have no effect on acceptor inhibition (FIGS. 7A-C). […]
# [2] = molecular target: T2, β4Gal-T1; settings: read-out: Km value of the acceptor; cited from earlier work
# [3] = β4Gal-T enzyme assay, specific activity in the presence of various metal ions; format: biochemical, bovine
# Method: Protein concentrations were measured using the Bio-Rad Protein Assay kit, based on the method of Bradford and further verified on SDS-PAGE gels using standard protein concentration markers. An in vitro assay procedure for Gal-T1 has been reported previously (Ramakrishnan et al., J. Mol. Biol., 310:205 (2001)). The activities were measured using UDP-Gal as sugar nucleotide donor, and GlcNAc as the acceptor sugar. For the specific activity measurements, a 100 μL incubation mixture containing 25 mM GlcNAc, 5 mM MnCl2 or MgCl2, 20 mM Tris-HCl pH 8.0, 500 μM UDP-Gal, 500 ng M344H-Gal-T1 or 30 ng of C342T-Gal-T1 and 0.5 μCi ^3H-UDP-Gal was used for each Gal-T reaction. The incubation was carried out at 30° C. for 15 minutes. The reaction was terminated by adding of 200 μl cold water, and the mixture was passed through a 0.5 mL bed volume column of AG 1-X8 […] resin (Bio-Rad) to remove any unreacted ^3H-UDP-Gal. The column was washed successively with 300, 400 and 500 μl of cold water, and the column flow-through was diluted with Biosafe scintillation fluid; radioactivity was measured with a Beckman counter. A reaction without the acceptor sugar was used as a control. Only 0.1 mM concentration of ZnCl2 or CoCl2 was used whenever Zn^2+ or Co^2+ was used during the enzyme assay.
# [4] = Metal ion activation curve, metal binding constants for Mn^2+; format: biochemical, bovine; settings: with Mn^2+
# Excerpt: The activation curve of M344E-Gal-T1, using Mn^2+, is strikingly different from that of the wild-type enzyme (FIGS. 1A and 1B). In contrast to the wild type enzyme, the velocity curve obtained with the Mn^2+ concentration for the M344E-Gal-T1 mutant is not sigmoidal. On the other hand, the same curve for the M344H-Gal-T1 mutant in the presence of the Mg^2+ is sigmoidal (FIG. 1C). The observation that activation of the wild type enzyme by metal ions is sigmoidal has been interpreted as involving two metal binding sites in the enzyme: one with high affinity (Kd1), which is associated with low velocity, and a second site with low affinity (Kd2), which is associated with high velocity (Powell and Brew, J. Biol. Chem., 251:3645 (1976); Boeggeman and Qasba, Glycobiology, 12:395 (2002)). […] The values of the dissociation constant (Kd) for Mn^2+ of the mutant are quite different from that of the wild type (Table IV).
# The enzyme activation data at various concentrations of Mg^2+ were fitted to an equation describing metal binding to a high affinity site (K1) to generate an enzyme form with a low kcat (V1) and to a second, lower affinity site (K2) to generate a form with a higher kcat (V2) (Boeggeman and Qasba, Glycobiology, 12:395 (2002)): […]
# [5] = Two-substrate kinetic analysis of galactose transfer; format: biochemical, bovine; settings: with Mn^2+
# Excerpt: The true Km of the donor (KA) and of the acceptor (KB), the dissociation constant of the donor, Kia, and kcat, were obtained using two-substrate analyses and the primary plots of at least five concentrations of donor (UDP-Gal) and five concentrations of acceptor, and the corresponding secondary plots of the intercepts and slopes. Initial rate conditions were linear with respect to time. A suitable range of donor and acceptor concentrations was chosen, which allowed accurate Michaelis-Menten constants to be derived. The data were also analyzed for a general two-substrate system using the following equations (Herbert, Initial Rate Enzymatic Kinetics, Springer-Verlag, New York (1975)) with the software EnzFitter, a Biosoft non-linear curve fitting program for Windows:
# [formula] Here ν is the initial velocity and the rate equation for a sequential symmetrical, initial velocity pattern associated with equation 1, an ordered or random equilibrium mechanism in which substrate A dissociates well from the ECS complex with a dissociation constant of Kia. Equation 2 is for an asymmetric initial velocity pattern for a double-displacement or “ping-pong” mechanism. The kinetic parameters KA, KB, Kia, and Vmax were obtained from the fitted curves using the above rate equations. The graphical method and EnzFitter program gave very similar kinetic parameters.
# This is quite similar to that of the wild-type enzyme (FIG. 2B) (Takase and Ebner, Curr. Top. Cell Regul., 24:51 (1984); Boeggeman and Qasba, Glycobiology, 12:395 (2002)). […] Although the catalytic efficiency with respect to donor and acceptor, compared to the wild-type enzyme with Mn^2+, has decreased by an order of about 13 and 6, respectively, the turnover number of the mutant, kcat, is reduced by only 60%. The lesser effect on kcat could be the result of Mg^2+ participating more efficiently in the formation of the transition state complex during the transfer reaction by the mutant or minor differences in the coordination geometry of the Mg^2+ in the mutant compared to that of Mn^2+ ion in the wild-type enzyme. The crystal structure of the M344H-Gal-T1 in complex with UDP-Gal in the presence of either Mn^2+ or Mg^2+ was then determined and compared to the structure with the wild-type UDP-Gal.metal complex. Crystal structure analysis of the M344E-Gal-T1 mutant in the presence of UDP-Gal and Mn^2+ was conducted to further understand the effect of the M344E mutation on the metal-ion binding site.
# [6] = Effect of the acceptor concentration on Gal-T activity of the enzyme; format: biochemical, bovine; settings: in the presence of Mn^2+
# Method: as §1, §2
# [7] = 5 mM metal ion, 500 μM UDP-Gal, 25 mM GlcNAc
molecule,measurement,setting,value
CC(=O)N[C@H]1[C@H](OCc2ccccc2)O[C@H](CO)[C@@H](O)[C@@H]1O [β-benzyl-GlcNAc],inhibition of the catalytic activity of the M344H-Gal-T1 mutant by the acceptor,[1],at very low concentrations much more strongly than GlcNAc does
"CC(=O)N[C@H]1[C@H](O[C@H]2[C@H](O)[C@@H](NC(C)=O)C(O)O[C@@H]2CO)O[C@H](CO)[C@@H](O)[C@@H]1O (stereo partly drawn) [chitobiose, βGlcNAc1-4GlcNAc]",inhibition of the catalytic activity of the M344H-Gal-T1 mutant by the acceptor,[1],at very low concentrations much more strongly than GlcNAc does
same,Km,[2],1 mM
"CC(=O)N[C@H]1C(O)O[C@H](CO)[C@@H](O)[C@@H]1O (stereo partly drawn) [GlcNAc, N-acetylglucosamine]",Km,[2],5 mM
"wild-type β4Gal-T1: residues 130 to 402 of bovine Gal-T1 with Cysteine to Threonine exchange at 342 (C342T), used as wild-type enzyme (protein, UniProt P08037 130-402, looked up, variant C342T, catalytic domain, residues 130 to 402 of bovine Gal-T1 with Cysteine to Threonine exchange at 342 (C342T), used as wild-type enzyme) SLTACPEESPLLVGPMLIEFNIPVDLKLVEQQNPKVKLGGRYTPMDCISPHKVAIIIPFRNRQEHLKYWLYYLHPILQRQQLDYGIYVINQAGESMFNRAKLLNVGFKEALKDYDYNCFVFSDVDLIPMNDHNTYRCFSQPRHISVAMDKFGFSLPYVQYFGGVSALSKQQFLSINGFPNNYWGWGGEDDDIYNRLAFRGMSVSRPNAVIGKTRMIRHSRDKKNEPNPQRFDRIAHTKETMLSDGLNSLTYMVLEVQRYPLYTKITVDIGTPS",Catalytic Activity in the Presence of Various Metal Ions: Co,"[3]; 0.1 mM Co^2+, 500 μM UDP-Gal, 25 mM GlcNAc",0.41^b picomoles per minute per nanogram
same,Catalytic Activity in the Presence of Various Metal Ions: Zn,"[3]; 0.1 mM Zn^2+, 500 μM UDP-Gal, 25 mM GlcNAc",1.42 picomoles per minute per nanogram
same,Catalytic Activity in the Presence of Various Metal Ions: Ca,[3]; [7],0 picomoles per minute per nanogram
same,Catalytic Activity in the Presence of Various Metal Ions: Mg,[3]; [7],0 picomoles per minute per nanogram
same,Catalytic Activity in the Presence of Various Metal Ions: Mn,[3]; [7],5.35 picomoles per minute per nanogram
same,Catalytic Activity in the Presence of Various Metal Ions: Sr,[3]; [7],0 picomoles per minute per nanogram
same,activation of the enzyme by Mg^2+,[3]; Mg^2+,does not activate
same,Kd,[4]; read-out: metal ion Kd1,30 µM
same,Kd,[4]; read-out: metal ion Kd2,400 µM
same,GlcNAc KB (true Km of the acceptor),[5],10 mM
same,Kcat,[5],3.6 s⁻¹
same,Kcat/KA,[5],40000 M⁻¹ s⁻¹
same,Kia (dissociation constant of the donor),[5],0
same,UDP-Gal KA (true Km of the donor),[5],95(6) μM
same,UDP-Gal Vmax,[5],6.4(4) pmol min^−1 ng^−1
same,GlcNAc concentrations at which catalytic activity is inhibited,[6],20 to 25 mM
same,GlcNAc concentrations at which catalytic activity is inhibited,[6]; listed as C342T-Gal-T1,25 to 30 mM

# Source: patent US8703459B2, “Catalytic domains of beta(1,4)-galactosyltransferase I having altered metal ion specificity” (The United States of America, as represented by the …, priority 2003, dated 2014)
